To fix the notation:
B1: Transcription factor SOX-4, residues 60 to 127; numbered along this chain, Q06945 (parent)
chain: KRPMNAFMVWSQIERRKIMEQSPDMHNAEISKRLGKRWKLLKDSDKIPFIREAERLRLKHMADYPDYK

± gives the uncertainty stated by the source.

This series covers variants of B1. Kind of series: abundance fitness (aPCA) (normalised: wild type 0, dead -1); higher = more abundant; growth selection in yeast, the domain comes from the species named. To be noted: Homo sapiens.
On to K39F, for which the abundance fitness was -0.481 ± 0.062.
The value for K39I was -0.384 ± 0.037; that for K39N was -0.19 ± 0.045; that for K39M was -0.144 ± 0.036.
Regarding K39V, the abundance fitness is -0.306 ± 0.039.
As to K39W, the abundance fitness was -0.758 ± 0.091.
The value for K39C was -0.329 ± 0.044; that for P3K was -0.103 ± 0.07; that for P3M was -0.163 ± 0.063.
For the variant P3I, the abundance fitness was -0.416 ± 0.079.
Consider P23W, for which the abundance fitness was -0.766 ± 0.088.
The value for P23H was -0.548 ± 0.083.
The value for P23V was -0.634 ± 0.06; that for S31D was 0.154 ± 0.04; that for S31H was -0.19 ± 0.07.
S31R: the abundance fitness is -0.137 ± 0.032.
The value for S31Q was -0.038 ± 0.078; that for S31N was 0.05 ± 0.044; that for Y64M was -0.061 ± 0.078.
In the case of Y64A, the abundance fitness is -0.094 ± 0.093.
The value for Y64F was -0.156 ± 0.094; that for Y64L was 0.009 ± 0.046.
Y64E: the abundance fitness turned out to be 0.006 ± 0.083.
The value for Y64T was 0.059 ± 0.065.
Take Y64S: the abundance fitness was 0.063 ± 0.056.
The value for Y64R was 0.035 ± 0.068.
The value for Y64W was -0.25 ± 0.077; that for P65Y was -0.124 ± 0.24.
With P65V, the abundance fitness was -0.097 ± 0.068.
The value for P65H was -0.09 ± 0.11; that for Y67C was -0.04 ± 0.15; that for Y67V was 0.159 ± 0.085.
The value for Y67S was 0.088 ± 0.078.
On to Y67A, for which the abundance fitness was found to be 0.028 ± 0.093.
With Y67R, the abundance fitness was determined as 0.048 ± 0.11.
The value for Y67Q was 0.051 ± 0.15.
The value for Y67L was -0.022 ± 0.046.
The value for Q12D was 0.179 ± 0.12; that for Q12A was -0.138 ± 0.1.
In the case of Q12I, the abundance fitness was -0.101 ± 0.15.
The value for Q12C was -0.07 ± 0.06.
The value for Q12E was 0.05 ± 0.069; that for Q12F was -0.494 ± 0.1; that for D66Q was -0.254 ± 0.083.
On to D66K, for which the abundance fitness was -0.11 ± 0.082.
The value for D66I was -0.13 ± 0.19.
For the variant R2K, the abundance fitness is -0.135 ± 0.12.
The value for R2E was -0.362 ± 0.12; that for R2L was -0.275 ± 0.067.
K17I: the abundance fitness was -0.178 ± 0.14.
The value for K17P was -0.987 ± 0.23; that for K17C was -0.857 ± 0.18; that for K17L was -0.215 ± 0.052.
The value for K17A was -0.765 ± 0.21; that for K17F was -0.353 ± 0.15.
The value for K17W was -0.87 ± 0.13; that for K17D was -0.459 ± 0.12.
Regarding L56M, the abundance fitness came to 0.115 ± 0.14.
The value for L56C was -0.408 ± 0.1; that for L56Y was -0.349 ± 0.22; that for L56P was -0.655 ± 0.1.
The value for L56F was -0.543 ± 0.11; that for R16L was -0.154 ± 0.04; that for R16C was -0.206 ± 0.057.
The value for R16Y was -0.416 ± 0.06.
In the case of R16A, the abundance fitness is -0.011 ± 0.048.
The value for S44Q was -0.073 ± 0.073; that for S44W was -0.41 ± 0.099; that for S44R was -0.264 ± 0.066.
The value for S44Y was -0.687 ± 0.19; that for S44N was -0.23 ± 0.18.
The value for S44A was 0.035 ± 0.053; that for K1M was -0.214 ± 0.15; that for K1E was -0.317 ± 0.12.
Take K1D: the abundance fitness was 0.048 ± 0.12.
The value for K1L was -0.347 ± 0.21; that for I30A was -0.605 ± 0.1; that for I30T was -0.661 ± 0.12.
Take I30C: the abundance fitness was -0.277 ± 0.046.
The value for I30E was -0.8 ± 0.092.
The value for I30Q was -0.7 ± 0.078; that for I30V was 0.022 ± 0.037.
The value for G35H was 0.178 ± 0.051.
Regarding G35S, the abundance fitness was found to be 0.173 ± 0.035.
For G35I, the abundance fitness turned out to be 0.156 ± 0.042.
In the case of G35K, the abundance fitness came to 0.262 ± 0.083.
The value for G35E was 0.262 ± 0.057; that for G35N was 0.015 ± 0.056; that for G35Q was 0.302 ± 0.2.
The value for G35R was 0.19 ± 0.037.
The value for A28T was -0.234 ± 0.066; that for A28Q was -0.145 ± 0.076; that for M4I was 0.047 ± 0.07.
As for M4S, the abundance fitness was -0.492 ± 0.085.
The value for M4V was -0.068 ± 0.044; that for R57E was -0.111 ± 0.066; that for R57C was -0.048 ± 0.13.
The value for R57H was -0.815 ± 0.41.
The value for R57F was 0.056 ± 0.22; that for R57S was -0.309 ± 0.08; that for L41S was -0.779 ± 0.1.
Turning to L41Q, the abundance fitness is -0.889 ± 0.19.
The value for L41G was -0.941 ± 0.16; that for L41A was -0.875 ± 0.12.
As for L41M, the abundance fitness was found to be 0.071 ± 0.065.
Regarding S11L, the abundance fitness is -0.432 ± 0.045.
The value for S11W was -0.608 ± 0.089; that for S11T was -0.69 ± 0.11; that for S11C was -0.206 ± 0.047.
As for S11E, the abundance fitness was -0.031 ± 0.11.
In the case of S11Q, the abundance fitness is -0.323 ± 0.092.
The value for S11V was -0.529 ± 0.058; that for S11H was -0.703 ± 0.088.
Regarding S11Y, the abundance fitness is -0.29 ± 0.048.
The value for S11M was -0.394 ± 0.079; that for N27G was -0.103 ± 0.033.
For the variant N27C, the abundance fitness is -0.164 ± 0.055.
The value for N27V was -0.07 ± 0.041.
Turning to N27F, the abundance fitness was -0.245 ± 0.057.
The value for R15C was -0.357 ± 0.049; that for R15E was -0.354 ± 0.079; that for R15W was -0.502 ± 0.063.
The value for R15D was -0.752 ± 0.092.
The value for R15K was -0.022 ± 0.052.
For N5Y, the abundance fitness is -0.472 ± 0.18.
The value for N5D was -0.032 ± 0.15; that for N5V was -0.828 ± 0.16; that for N5G was -0.278 ± 0.081.
The value for N5M was -0.842 ± 0.13.
The value for N5A was -0.559 ± 0.1; that for N5Q was -0.585 ± 0.12; that for D43L was -0.151 ± 0.044.
Turning to D43F, the abundance fitness was -0.087 ± 0.041.
As to D43E, the abundance fitness is -0.058 ± 0.057.
The value for D43K was -0.273 ± 0.06; that for E20K was -0.439 ± 0.16; that for E20M was -0.239 ± 0.087.
The value for E20Y was -0.88 ± 0.33; that for E20I was -0.227 ± 0.14; that for E20F was -0.601 ± 0.19.
The value for E20W was -0.626 ± 0.1; that for E29I was -0.916 ± 0.19.
On to E29T, for which the abundance fitness is -0.348 ± 0.12.
Take E29S: the abundance fitness is -0.539 ± 0.094.
The value for E29L was -0.518 ± 0.067.
The value for K36A was -0.019 ± 0.071; that for K36S was -0.098 ± 0.11.
The value for K59H was -0.108 ± 0.073; that for K59E was -0.017 ± 0.046.
K59L: the abundance fitness was 0.02 ± 0.044.
For M25G, the abundance fitness was -0.713 ± 0.092.
M25D: the abundance fitness is -0.397 ± 0.091.
The value for M25K was -0.216 ± 0.082.
The value for M19R was -0.236 ± 0.05; that for M19Q was -0.112 ± 0.11.
On to M19L, for which the abundance fitness was 0.116 ± 0.041.
The value for D63P was -0.117 ± 0.074; that for D63K was -0.128 ± 0.06; that for D63M was 0.055 ± 0.052.
The value for D63E was 0.044 ± 0.042.
As to D63F, the abundance fitness was -0.283 ± 0.05.
The value for L40I was -0.468 ± 0.064; that for L40T was 0.019 ± 0.065.
The value for L40F was -0.34 ± 0.069; that for L40Q was 0.011 ± 0.071.
The value for L40V was -0.329 ± 0.046.
For the variant L40Y, the abundance fitness is -0.331 ± 0.08.

For the origin of these results see the Human Domainome abundance scans (Beltran et al. 2025).
